Biological target: EV-A71 2C protein (analyte of the SPR assay) (Enterovirus A71 (strain ), UniProt Q66478 1112-1440)
Assay: SPR

B1: UBE3C protein (TP315110, ORIGENE) (enzyme)
chain: MFSFEGDFKTRPKVSLGGASRKEEKASLLHRTQEERRKREEERRRLKNAIIIQSFIRGYRDRKQQYSIQRSAFDRCATLSQSGGAFPIANGPNLTLLVRQLLFFYKQNEDSKRLIWLYQNLIKHSSLFVKQLDGSERLTCLFQIKRLMSLCCRLLQNCNDDSLNVALPMRMLEVFSSENTYLPVLQDASYVVSVIEQILHYMIHNGYYRSLYLLINSKLPSSIEYSDLSRVPIAKILLENVLKPLHFTYNSCPEGARQQVFTAFTEEFLAAPFTDQIFHFIIPALADAQTVFPYEPFLNALLLIESRCSRKSGGAPWLFYFVLTVGENYLGALSEEGLLVYLRVLQTFLSQLPVSPASASCHDSASDSEEESEEADKPSSPEDGRLSVSYITEECLKKLDTKQQTNTLLNLVWRDSASEEVFTTMASVCHTLMVQHRMMVPKVRLLYSLAFNARFLRHLWFLISSMSTRMITGSMVPLLQVISRGSPMSFEDSSRIIPLFYLFSSLFSHSLISIHDNEFFGDPIEVVGQRQSSMMPFTLEELIMLSRCLRDACLGIIKLAYPETKPEVREEYITAFQSIGVTTSSEMQQCIQMEQKRWIQLFKVITNLVKMLKSRDTRRNFCPPNHWLSEQEDIKADKVTQLYVPASRHVWRFRRMGRIGPLQSTLDVGLESPPLSVSEERQLAVLTELPFVVPFEERVKIFQRLIYADKQEVQGDGPFLDGINVTIRRNYIYEDAYDKLSPENEPDLKKRIRVHLLNAHGLDEAGIDGGGIFREFLNELLKSGFNPNQGFFKTTNEGLLYPNPAAQMLVGDSFARHYYFLGRMLGKALYENMLVELPFAGFFLSKLLGTSADVDIHHLASLDPEVYKNLLFLKSYEDDVEELGLNFTVVNNDLGEAQVVELKFGGKDIPVTSANRIAYIHLVADYRLNRQIRQHCLAFRQGLANVVSLEWLRMFDQQEIQVLISGAQVPISLEDLKSFTNYSGGYSADHPVIKVFWRVVEGFTDEEKRKLLKFVTSCSRPPLLGFKELYPAFCIHNGGSDLERLPTASTCMNLLKLPEFYDETLLRSKLLYAIECAAGFELS
Q: Which Kd does the source give for B1 here?
A: The Kd was 72.1 µM.

Source: PMC11494953 (2024)
